Assay results from PMC13067816, “Alphaviral Capsid Proteins Inhibit Stress Granule Assembly via Competitive RNA Binding With G3BP1”.

Biological target: SFV capsid (nucleocapsid N) (Semliki Forest virus (SFV4, …, UniProt P03315 1-267))
Experiment: fluorescence polarization; 20 nM probe, 0-8000 nM protein; FP: 50 mM Tris-HCl pH 7.4, 150 mM NaCl, 20 nM FAM-RNA, 15 min, room temperature

GGUUGACGGGUCGGAUAGUUGCUU (ssRNA) [FAM-SFV gRNA probe1]: binds.

GCGUCGUGUGAGCCCCCGAAAGACCACAUA (ssRNA) [FAM-SFV gRNA probe2]: binds.

UUUGUCAAGCUCAUUUCCUGGUAUGACAAC (ssRNA) [FAM-GAPDH probe]: binds.

AUGCAAAGGGCUUGGACUUGGGUGGCAGAG (ssRNA) [FAM-AHNAK probe]: binds.
